This is an account of results in PMC13269782.

This experiment has as its target T1, Cx47, human (human) (UniProt Q5T442).
T1 sequence: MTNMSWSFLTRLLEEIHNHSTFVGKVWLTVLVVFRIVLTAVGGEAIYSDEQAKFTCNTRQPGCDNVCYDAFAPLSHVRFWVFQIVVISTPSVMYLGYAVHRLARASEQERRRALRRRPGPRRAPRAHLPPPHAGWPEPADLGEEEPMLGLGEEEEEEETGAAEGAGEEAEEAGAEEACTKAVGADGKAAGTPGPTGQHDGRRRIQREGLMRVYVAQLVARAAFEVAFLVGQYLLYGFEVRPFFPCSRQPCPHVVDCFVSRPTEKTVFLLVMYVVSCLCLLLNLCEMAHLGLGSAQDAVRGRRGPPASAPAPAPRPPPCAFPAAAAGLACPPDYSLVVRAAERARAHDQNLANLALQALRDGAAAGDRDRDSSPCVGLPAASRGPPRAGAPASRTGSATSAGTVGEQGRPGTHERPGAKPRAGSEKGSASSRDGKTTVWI

B1: Cx47, human (natural protein)
chain: MTNMSWSFLTRLLEEIHNHSTFVGKVWLTVLVVFRIVLTAVGGEAIYSDEQAKFTCNTRQPGCDNVCYDAFAPLSHVRFWVFQIVVISTPSVMYLGYAVHRLARASEQERRRALRRRPGPRRAPRAHLPPPHAGWPEPADLGEEEPMLGLGEEEEEEETGAAEGAGEEAEEAGAEEACTKAVGADGKAAGTPGPTGQHDGRRRIQREGLMRVYVAQLVARAAFEVAFLVGQYLLYGFEVRPFFPCSRQPCPHVVDCFVSRPTEKTVFLLVMYVVSCLCLLLNLCEMAHLGLGSAQDAVRGRRGPPASAPAPAPRPPPCAFPAAAAGLACPPDYSLVVRAAERARAHDQNLANLALQALRDGAAAGDRDRDSSPCVGLPAASRGPPRAGAPASRTGSATSAGTVGEQGRPGTHERPGAKPRAGSEKGSASSRDGKTTVWI
In turn, B1 yielded a median junctional conductance (Gj), dual whole-cell patch clamp of DKO HEK293 cell pairs, homotypic; IQR 0.08–7.68; 20 pairs of 1.3 nS.
